Experimental data from patent US20230382979A1 (ADAPTIVE BIOTECHNOLOGIES, published 2023).

How the values were obtained:
[1] = biological target: SARS-CoV-2 spike protein, B1.1.7 (alpha variant), borne on lentiviral pseudovirus (SARS-CoV-2, B1.1.7); test: cell-based or functional assay
[2] = biological target: T1, SARS-CoV-2 spike protein on live virus, strain USA-WA1/2020 (SARS-CoV-2, WA01/2020 strain, UniProt P0DTC2 14-1273); test: cell-based or functional assay
[3] = biological target: T2, Receptor-binding domain (RBD) of the SARS-CoV-2 spike protein, WA01/2020 strain (SARS-CoV-2, WA01/2020 strain, UniProt P0DTC2 319-541); test: dose-response ELISA on WT RBD
[4] = biological target: T2, Receptor-binding domain (RBD) of the …; test: dose-response ELISA on coated antigen
[5] = biological target: T2, Receptor-binding domain (RBD) of the …; test: ELISA, antibody blocks RBD binding to human ACE2
[6] = biological target: T2, Receptor-binding domain (RBD) of the …; test: SPR (Biacore 8K), antigen immobilized, antibody injected
[7] = biological target: T2, Receptor-binding domain (RBD) of the …; test: ELISA, antibody at 0.1 ug/mL
[8] = biological target: SARS-CoV-2 spike protein, B1.351 (beta variant), borne on lentiviral pseudovirus (SARS-CoV-2, B1.351); test: cell-based or functional assay
[9] = biological target: SARS-CoV-2 spike protein on live virus, B1.351 (beta variant) (SARS-CoV-2, B1.351); test: cell-based or functional assay
[10] = biological target: T1, SARS-CoV-2 spike protein on live virus, …; test: cell-based or functional assay; remark: listed apart in the source
[11] = biological target: T2, Receptor-binding domain (RBD) of the …; test: SPR (Biacore), footnote to the Kd of < 4.7* pM

B1: antibody 2619 (antibody, V domains shown)
VH: EVQLVESGGGLVQPGRSLRLSCAASGFTFDDYAMHWVRQAPGKGLEWVSGISWNSGSIGYADSVKGRFTLSRDNAKNSLFLQMDSLRAEDTALYYCAKDVSYRSGSYYRFWGGSGSWGQGTLVTVSS
VL: DIQMTQSPSSLSASVGDRVTITCRASLSIRSYLNWYQQKPGKPPKLLIYAASSLQSGVPSRFSGSGSGTDFTLTISSLQPEDFATYYCQQSYSTPLTFGGGTKVEIK
- Pseudo Neut, B1.1.7 IC50 (pM) [1]: ~7 pM
- Live Neut, WA1/2020 IC50 (pM) [2]: 118 pM
- EC50 (read off the curve) [3]: ~0.02 µg/mL
- EC50 [4]: 0.037 nM
- IC50 [5]: 0.479 nM
- Kd [6]: 0.105 nM

B2: antibody 2854 (antibody, V domains shown)
VH: QVQLVQSGAEVKKPGSSVKVSCKASGGTFSSYAISWVRQAPGQGLEWMGGIIPIFHTANYAQKFQGRVTITADESTSTTYVELSSLRSEDTAMYYCATLPITIFGEEYSFDNWGQGTLVTVSS
VL: DVVMTQSPLSLPVTLGQPASISCRSSQSLVHSDGNTYLSWFQQRPGQSPRRLIYKVSDRDSGVPDRFSGSGSGTDFTLKISRVEAEDVGIYYCMQGTHWPPLTFGGGTKVEIK
- Live Neut, WA1/2020 IC50 (pM) [2]: 164 pM
- binding result [7]: no binding (tested: 0.1 ug/mL)

B3: antibody 2866 (antibody, V domains shown)
VH: QVQLVQSGAEVKKPGSSVKVSCKASGGTFSSYSISWVRQAPGQGLEWMGGLAPIFHTPNYAQKFQGRVTITADESTSTAYMELSSLRSEDTAVYYCARVAGAGWGVYGAFDYWGQGTLVTVSS
VL: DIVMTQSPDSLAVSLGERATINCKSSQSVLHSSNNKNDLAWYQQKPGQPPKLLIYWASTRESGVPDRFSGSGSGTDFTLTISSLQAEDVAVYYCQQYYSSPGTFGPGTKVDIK
- Live Neut, WA1/2020 IC50 (pM) [2]: 649 pM
- binding result [7]: no binding (tested: 0.1 ug/mL)

B4: antibody 1589 (antibody, V domains shown)
VH: EVQLVESGGGLIQVGGSLRLSCAASGLTVTSNYMNWVRQGPGKGLEWVSLIYSGGTTYYADSVKGRFTISRDDSKNTLYLQMNSLRAEDTAVYYCARPIVGARSGMDVWGQGTAVTVSS
VL: DIQMTQSPSSLSASVGDRVTITCQASQDINKYLNWYQQKPGKAPKLLIYDASNLETGVPSRFSGSGSGTDFTFTISSLQPEDLATYYCHQFDNLPGTFGGGTKVEIK
- Pseudo Neut, B1.1.7 IC50 (pM) [1]: 133 pM
- Pseudo Neut, B1.351 IC50 (pM) [8]: 137 pM
- Live Neut, WA1/2020 IC50 (pM) [2]: 43 pM
- Live Neut, B1.351 IC50 (pM) [9]: 167 pM
- IC50, live virus micro-neutralization WA1/2020 [10]: 0.0667 nM
- EC50 [4]: 0.036 nM
- IC50 [5]: 0.52 nM
- koff [11]: < 1e-06 s⁻¹
- Kd [6]: < 0.0047 nM

B5: antibody 2788 (antibody, V domains shown)
VH: QVQLVQSGAEVKKPGASVKVSCKVSGYTLIELSMHWVRQAPGKGLEWMGGFDPEGAETIYAQKFQGRVTMTEDTSTDTAYMELSSLRSDDTAVYYCATGPAVFAANWFDPWGQGTLVTVSS
VL: QSALTQPPSASGSPGQSVTISCTGTSSDIGNYNNVSWYQQHPGKAPKLMIYDVIKRPSGVPDRFSGSKSGNTASLTVSGLQAEDEADYYCSSYAGKSYVFGTGTKVTVL
- Live Neut, WA1/2020 IC50 (pM) [2]: 117 pM
- binding result [7]: no binding (tested: 0.1 ug/mL)

B6: antibody 2729 (antibody, V domains shown)
VH: QVTLKESGPVLVKPTETLTLTCTVSGFSLSNARMGVSWIRQPPGKALEWLAHIFSNDEKSYSTYLKSRLTISKDSSKSQVVLTMTIMDPVDTATYYCARTAGRYSSRWGHYYYYMDVWGKGTTVTVSS
VL: NFMLTQPHSVSESPGKTVTISCTGSNGSIASNFMQWYQQRPGSAPTIVIYEDNQRPSGVPDRFSGSIDGSSNSASLTISGLKTEDEADYYCQSYDSSDSDLGVFGGGTKLTVL
- Pseudo Neut, B1.1.7 IC50 (pM) [1]: 93 pM
- Pseudo Neut, B1.351 IC50 (pM) [8]: 793 pM
- Live Neut, WA1/2020 IC50 (pM) [2]: 111 pM
- IC50, live virus micro-neutralization WA1/2020 [10]: 0.272 nM
- EC50 (read off the curve) [3]: ~0.01 µg/mL
- EC50 [4]: 0.037 nM
- IC50 [5]: ~0.66 nM
- Kd [6]: 0.015 nM

B7: antibody 2793 (antibody, V domains shown)
VH: QVQLVQSGAEVKKPGASVKVSCKVSGFTLPELSIHWVRQAPGKGLEWMGGFDPEDAKTIYAQKFQGRVTMTEDTSTDIAYMELNSLRSDDTAVYYCATGSPFGVVGNWLDPWGQGTLVTVSS
VL: QSALTQPASVSGSPGQSITISCTGTSSDVGDFSYVSWYQQHPGKAPKLMIYEVTKRPSGVSNRFSGSKSGNTASLTISGLQTEDEADYYCTSYTSSRLVLFGGGTKLTVL
- Live Neut, WA1/2020 IC50 (pM) [2]: 77 pM
- binding result [7]: no binding (tested: 0.1 ug/mL)
